B1: C-007 (Fab format) (Fab, V domains shown)
VH: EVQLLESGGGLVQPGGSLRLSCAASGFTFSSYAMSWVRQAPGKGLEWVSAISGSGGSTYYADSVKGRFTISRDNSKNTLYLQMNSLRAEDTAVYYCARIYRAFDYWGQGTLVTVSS
VL: ASVLTQPPSVSAAPGQKVTISCSGSSSNIGNNYVSWYQQLPGTAPKLLIYDNNKRPSGIPDRFSGSKSGTSATLGITGLQAEDEADYYCQLYEEEHSTWVFGGGTKLTVL
notes: Fab in E. coli lysate
B2: C-001 (Fab format) (Fab, V domains shown)
VH: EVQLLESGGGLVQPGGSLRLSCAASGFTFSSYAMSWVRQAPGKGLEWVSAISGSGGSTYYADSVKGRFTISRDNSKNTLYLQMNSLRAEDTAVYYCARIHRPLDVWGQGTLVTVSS
VL: ASVLTQPPSVSAAPGQKVTISCSGSSSNIGNNYVSWYQQLPGTAPKLLIYDNNKRPSGIPDRFSGSKSGTSATLGITGLQAEDEADYYCGSWLEERSQYVFGGGTKLTVL
notes: Fab in E. coli lysate
B3: A-008 (IgG1 format) (antibody, V domains shown)
VH: QLQLQESGPGLVKPSETLSLTCTVSGGSISSSGYYWGWIRQPPGKGLEWIGSIYYSGSTYYNPSLKSRVTISVDTSKNQFSLKLSSVTAADTAVYYCARHRVRFGEFDAFDIWGQGTMVTVSS
VL: QAVLTQPPSVSGAPGERVTLSCTGTSSNVGADFDVHWYQQFPGTAPRLLIFGSDNRPSGVPDRFSGSKSGTSASLAITGLQVEDEADYYCQAYDVRLSGWVFGGGTKLTVL
notes: human IgG1 format
B4: A-023 (IgG1 format) (antibody, V domains shown)
VH: QVQLVQSGAEVKKPGSSVKVSCKASGGTFSSYAISWVRQAPGQGLEWMGGIIPIFGTANYAQKFQGRVTITADESTSTAYMELSSLRSEDTAVYYCARPKYSSGWFYYYGMDVWGQGTTVTVSS
VL: QSVLTQPPSVSAAPGQKVTISCSGSSSNIGNNYVSWYQQLPGTAPKLLIYDNNKRPSGIPDRFSGSKSGTSATLGITGLQTGDEADYYCGTWDSSLSVVFGGGTKLTVL
notes: human IgG1 format
B5: A-029 (IgG1 format) (antibody, V domains shown)
VH: QVQLVQSGAEVKKPGSSVKVSCKASGGTFSSYAISWVRQAPGQGLEWMGGIIPIFGTANYAQKFQGRVTITADESTGTAYMELSSLRSEDTAVYYCARSYYYYYGMDVWGQGTTVTVSS
VL: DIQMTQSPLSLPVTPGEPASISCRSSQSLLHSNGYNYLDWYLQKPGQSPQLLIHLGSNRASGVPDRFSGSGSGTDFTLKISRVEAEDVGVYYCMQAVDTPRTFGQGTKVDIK
notes: human IgG1 format
B6: A-016 (IgG1 format) (antibody, V domains shown)
VH: QVQLQESGAEVKKPGASVKVSCKASGYTFTGYYMHWVRQAPGQGLEWMGGIIPIFGTANYAQKFQGRVTITADESTSTAYMELSSLRSEDTAVYYCAGAGMELTRSGAYYYYGMDVWGQGTTVTVSS
VL: QSALTQPASVSGSPGQSITISCTGTSSDIGGYTFVSWYQQHPGKAPKVMIHDVNNRPSGISNRFSGSKSGNTASLTISGLQAEDEADYYCSSVTSTNTYVFGTGTKVTVL
notes: human IgG1 format
B7: A-033 (IgG1 format) (antibody, V domains shown)
VH: QVQLVQSGAEVKKPGASVKVSCKASGYTFTSYGISWVRQAPGQGLEWMGWISAYNGNTNYAQKLQGRVTMTTDTSTSTAYMELRSLRSDDTAVYYCARDHSIVGATTFDYWGQGTLVTVSS
VL: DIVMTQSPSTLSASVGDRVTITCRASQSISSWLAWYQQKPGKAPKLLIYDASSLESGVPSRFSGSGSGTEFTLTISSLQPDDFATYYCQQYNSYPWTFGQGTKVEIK
notes: human IgG1 format
B8: A-001 (IgG1 format) (antibody, V domains shown)
VH: EVQLVESGGGLVKPGGSLRLSCAASGFTFSSYSMNWVRQAPGKGLEWVSSISSSSSYIYYADSVKGRFTISRDNAKNSLYLQMNSLRAEDTAVYYCVRSIIVQALGITSVFDIWGQGTMVTVSS
VL: AIRLTQSPSSLSASVGDRVTISCRASQIISNHLNWYQQKPGKAPKLLIYAASRLQTGVPSRFSGSGSETDYTLTISSLQPEDFATYYCQQSYSNPRTFGHGTKVEIK
notes: human IgG1 format
B9: A-025 (IgG1 format) (antibody, V domains shown)
VH: QVQLVQSGAEVKKPGSSVKVSCKASGGTFSSYAISWVRQAPGQGLEWMGGIIPIFGTANYAQKFQGRVTITADESTSTAYMELTSLRSEDTAVYYCARGGWLRQNWFDPWGQGTLVTVSS
VL: SSELTQDPAVSVALGQTVRITCQGDSLRSYYASWYQQKPGQAPVLVIYGKNNRPSGIPDRFSGSSSGNTASLTITGAQAEDEADYYCNSRDSSGNHPRVFGGGTKLTVL
notes: human IgG1 format
B10: A-009 (IgG1 format) (antibody, V domains shown)
VH: QVQLVQSGAEVKKPGSSVKVSCKASGGTFSSYAISWVRQAPGQGLEWMGGIIPIFGTANYAQKFQGRVTITADESTSTAYMELSSLRSEDTAVYYCARGRGFGELYFDYWGQGTLVTVSS
VL: ETTLTQSPATLSVSPGERATLSCRASQGVRSNIAWYQQKPGQAPRLLIYDSSTRATGIPARFSGSGSGTEFTLTISSLQSEDFAVYSCQQYKNWPRTFGQGTKVEIK
notes: human IgG1 format
B11: A-003 (IgG1 format) (antibody, V domains shown)
VH: VQLVQSGAEVKKPGSSVKVSCKASGGTFSSYAISWVRQAPGQGLEWMGGIIPIFGTANYAQKFQGRVTITADESTSTAYMELSSLRSEDTAVYYCASPRIQLWAAGGFDYWGQGTLVTVSS
VL: QSALTQPASVSGSPGQSITISCTGTSSDVGGYNLVSWYQQHPGKAPKLMIYDVSNRPSGVSNRFSGSKSGNTASLTISGLQAEDEADYYCSSFTTSTTLVFGGGTKLTVL
notes: human IgG1 format
B12: C-013 (IgG1 format) (antibody, V domains shown)
VH: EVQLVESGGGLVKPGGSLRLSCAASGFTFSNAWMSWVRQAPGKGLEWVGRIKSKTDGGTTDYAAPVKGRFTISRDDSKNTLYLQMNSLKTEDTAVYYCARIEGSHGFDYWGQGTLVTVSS
VL: SYELTQPPSVSVSPGQTASITCSGDKLGDKYASWYQQKPGQSPVLVIYQDSKRPSGIPERFSGSNSGNTATLTISGTQAEDEADYYCASYLHTPKQFVFGGGTKLTVL
notes: wildtype human IgG1 and kappa or lambda constant regions
B13: C-015 (IgG1 format) (antibody, V domains shown)
VH: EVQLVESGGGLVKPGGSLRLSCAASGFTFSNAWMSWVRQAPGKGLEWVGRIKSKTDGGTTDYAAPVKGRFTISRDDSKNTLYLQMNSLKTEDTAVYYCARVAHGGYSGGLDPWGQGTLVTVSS
VL: SYELTQPPSVSVSPGQTASITCSGDKLGDKYASWYQQKPGQSPVLVIYQDSKRPSGIPERFSGSNSGNTATLTISGTQAEDEADYYCSSTGTAHTLAVFGGGTKLTVL
notes: as for B12
B14: C-018 (IgG1 format) (antibody, V domains shown)
VH: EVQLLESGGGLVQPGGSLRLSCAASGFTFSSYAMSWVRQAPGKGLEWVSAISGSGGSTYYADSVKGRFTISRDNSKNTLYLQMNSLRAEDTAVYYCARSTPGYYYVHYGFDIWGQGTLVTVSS
VL: SYELTQPPSVSVSPGQTASITCSGDKLGDKYASWYQQKPGQSPVLVIYQDSKRPSGIPERFSGSNSGNTATLTISGTQAEDEADYYCQAWSTSTHSWVFGGGTKLTVL
notes: as for B12
B15: C-009 (IgG1 format) (antibody, V domains shown)
VH: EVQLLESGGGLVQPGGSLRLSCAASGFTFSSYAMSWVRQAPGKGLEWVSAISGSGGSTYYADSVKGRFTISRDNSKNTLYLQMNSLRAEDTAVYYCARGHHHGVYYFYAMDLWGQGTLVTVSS
VL: SYELTQPPSVSVSPGQTASITCSGDKLGDKYASWYQQKPGQSPVLVIYQDSKRPSGIPERFSGSNSGNTATLTISGTQAEDEADYYCQSYSGSSTLHVFGGGTKLTVL
notes: as for B12
B16: C-024 (IgG1 format) (antibody, V domains shown)
VH: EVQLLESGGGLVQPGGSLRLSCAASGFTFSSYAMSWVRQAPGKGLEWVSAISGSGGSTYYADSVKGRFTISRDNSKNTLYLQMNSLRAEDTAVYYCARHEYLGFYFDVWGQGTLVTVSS
VL: SYELTQPPSVSVSPGQTASITCSGDKLGDKYASWYQQKPGQSPVLVIYQDSKRPSGIPERFSGSNSGNTATLTISGTQAEDEADYYCLASHRLTLNYVFGGGTKLTVL
notes: as for B12
B17: C-023 (IgG1 format) (antibody, V domains shown)
VH: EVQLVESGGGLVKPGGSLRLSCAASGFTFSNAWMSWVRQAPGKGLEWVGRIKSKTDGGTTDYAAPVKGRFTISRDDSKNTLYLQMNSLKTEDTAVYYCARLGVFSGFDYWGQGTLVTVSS
VL: SYELTQPPSVSVSPGQTASITCSGDKLGDKYASWYQQKPGQSPVLVIYQDSKRPSGIPERFSGSNSGNTATLTISGTQAEDEADYYCHTWTHHSLAVVFGGGTKLTVL
notes: as for B12
B18: C-006 (IgG1 format) (antibody, V domains shown)
VH: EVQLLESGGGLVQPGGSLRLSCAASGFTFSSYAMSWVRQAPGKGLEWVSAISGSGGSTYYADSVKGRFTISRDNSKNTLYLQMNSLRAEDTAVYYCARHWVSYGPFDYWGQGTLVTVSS
VL: DIQMTQSPSSLSASVGDRVTITCRASQSISSYLNWYQQKPGKAPKLLIYAASSLQSGVPSRFSGSGSGTDFTLTISSLQPEDFATYYCQQSHQSPPITFGQGTKVEIK
notes: as for B12
B19: C-008 (IgG1 format) (antibody, V domains shown)
VH: EVQLLESGGGLVQPGGSLRLSCAASGFTFSSYAMSWVRQAPGKGLEWVSAISGSGGSTYYADSVKGRFTISRDNSKNTLYLQMNSLRAEDTAVYYCTTDNGHNRDWGQGTLVTVSS
VL: ASVLTQPPSVSAAPGQKVTISCSGSSSNIGNNYVSWYQQLPGTAPKLLIYDNNKRPSGIPDRFSGSKSGTSATLGITGLQAEDEADYYCGTWTRSSGVFGGGTKLTVL
notes: as for B12
B20: C-010 (IgG1 format) (antibody, V domains shown)
VH: QVQLVQSGAEVKKPGSSVKVSCKASGGTFSSYAISWVRQAPGQGLEWMGGIIPIFGTANYAQKFQGRVTITADESTSTAYMELSSLRSEDTAVYYCARGYGEYYPAFDVWGQGTLVTVSS
VL: SYELTQPPSVSVSPGQTASITCSGDKLGDKYASWYQQKPGQSPVLVIYQDSKRPSGIPERFSGSNSGNTATLTISGTQAEDEADYYCASYAHTHSTWVFGGGTKLTVL
notes: as for B12
B21: C-022 (IgG1 format) (antibody, V domains shown)
VH: EVQLLESGGGLVQPGGSLRLSCAASGFTFSSYAMSWVRQAPGKGLEWVSAISGSGGSTYYADSVKGRFTISRDNSKNTLYLQMNSLRAEDTAAYYCARMAAGASWGTFDYWSQGTLVTVSS
VL: DIQMTQSPSSLSASVGDRVTITCRASQSISSYLNWYQQKPGKAPKLLIYAASSLQSGVPSRFSGSGSGTDFTLTISSLQPEDFATYYCQQRSGSPLTFGQGTKVEIK
notes: as for B12
B22: C-026 (IgG1 format) (antibody, V domains shown)
VH: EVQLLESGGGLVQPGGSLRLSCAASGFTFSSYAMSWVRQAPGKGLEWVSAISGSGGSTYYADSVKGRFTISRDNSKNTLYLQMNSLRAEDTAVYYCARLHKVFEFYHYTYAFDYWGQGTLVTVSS
VL: ASVLTQPPSVSAAPGQKVTISCSGSSSNIGNNYVSWYQQLPGTAPKLLIYDNNKRPSGIPDRFSGSKSGTSATLGITGLQAEDEADYYCASYSSETSGWVFGGGTKLTVL
notes: as for B12
B23: C-002 (IgG1 format) (antibody, V domains shown)
VH: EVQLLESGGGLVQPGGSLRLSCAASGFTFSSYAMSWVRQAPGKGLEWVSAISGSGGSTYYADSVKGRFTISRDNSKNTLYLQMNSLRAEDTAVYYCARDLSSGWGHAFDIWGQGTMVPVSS
VL: ASVLTQPPSVSAAPGQKVTISCSGSSSNIGNNYVSWYQQLPGTAPKLLIYDNNKRPSGIPDRFSGSKSGTSATLGITGLQAEDEADYYCLSYTTSEHHLVFGGGTKLTVL
notes: as for B12
B24: A-004 (scFv format) (scFv, V domains shown)
VH: EVQLVESGGGLVKPGGSLRLSCAASGFTFSSYSMNWVRQAPGKGLEWVSSISSSSSYIYYADSVKGRFTISRDNAKNSLYLQMNSLRAEDTAVYYCARGQLLWFGESALIDAFDIWGQGTMVTVSS
VL: EIVLTQSPSSLSASVGDRVTITCRASQSISSYLNWYQLKPGKAPKLLIYAASILQSGVPSRFSGSGSGTDFTLTISSLQPEDFAAYYCQQSYSTPRTFGQGTKLEIK
notes: scFv
B25: A-035 (scFv format) (scFv, V domains shown)
VH: QVQLVQSGAEVKKPGASVKVSCKASGYTFTGYYMHWVRQAPGQGLEWMGWINPNSGNTGYAQKFQGRVTMTRNTSISTAYMELSSLRSEDTAVYYCARGRLERGYWYFDLWGRGTLVTVSS
VL: NFMLTQPHSVSESPGRTVTISCTRSSGSITSNYVQWYQQRPGSAPTILIYEDKERPSEVPDRFSGSIDISSNSASLTISGLKTEDEADYYCQSYGGTSQGVLFGGGTKVTVL
notes: scFv

Target: T1, Streptavidin (UniProt P22629 37-163, limits assumed)
T1 construct: also called negative antigen; irrelevant antigen
Test: ELISA, Fab
Description: In order to identify IGSF11-specific binding ABPs, monoclonal Fabs expressed from E. coli were generated from the enriched set of anti-IGFS11 antibody-expressing phage. After bacterial lysis, the Fabs were tested for their binding properties and cross-reactivity profile on recombinant ECD-IGSF11 (human, mouse and cynomolgus monkey) by standard ELISA. Briefly, biotinylated recombinant ECD-IGSF11 from human, mouse, or cynomolgus monkey were immobilized at 2 ug/mL on a streptavidin-coated 384-well Maxisorp plate. The surface was blocked with 2% (w/v) skim milk powder in PBST. After three wash cycles with PBST, a bacterial lysate of each of the anti-IGSF11 Fabs in 2% (w/v) skim milk powder was applied to the immobilized IGSF11 and incubated for 1 h. After removing all unbound Fab by 3 wash cycles with PBST, bound Fab antibodies were detected with a goat anti-human Fab antibody conjugated with horseradish peroxidase. After three wash cycles with PBST the ELISA was developed with TMB substrate.

T1 sequence (P22629 37-163 limits assumed): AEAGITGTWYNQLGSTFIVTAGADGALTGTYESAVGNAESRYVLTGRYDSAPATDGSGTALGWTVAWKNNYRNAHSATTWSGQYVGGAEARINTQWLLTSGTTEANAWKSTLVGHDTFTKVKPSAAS

Row | Binder | A450
1 | B1 | < 0.1
2 | B2 | < 0.1

Target: T2, His-tagged extracellular domain (ECD) of human IGSF11 (VSIG3) (human, UniProt Q5DX21 23-241)
T2 construct: partly bought (SinoBiological 13094-H08H); also called IGSF11-HIS; HIS-IGSF11; not shown: HIS6 tag
T2 sequence: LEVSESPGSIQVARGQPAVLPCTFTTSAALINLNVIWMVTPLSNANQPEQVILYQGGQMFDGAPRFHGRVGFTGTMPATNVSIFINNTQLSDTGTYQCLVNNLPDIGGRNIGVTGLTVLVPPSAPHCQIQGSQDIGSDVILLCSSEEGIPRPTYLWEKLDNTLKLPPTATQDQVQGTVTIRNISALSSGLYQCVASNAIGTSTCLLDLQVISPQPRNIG
Test: ELISA EC50 grade, IgG1

Row | Binder | EC50 [nM]
3 | B3 | 0.02 to 0.05
4 | B4 | 0.05 to 1
5 | B5 | 0.05 to 1
6 | B6 | < 0.02
7 | B7 | 0.02 to 0.05
8 | B8 | < 0.02
9 | B9 | 0.05 to 1
10 | B10 | 0.05 to 1
11 | B11 | 0.05 to 1

Target: T3, IGSF11 ECD fused to murine-Fc (human; mouse, UniProt Q5DX21 23-241)
T3 construct: also called Fc-fusion IGSF11 ECD; full-length ECD of IGSF11; not shown: murine Fc
T3 sequence: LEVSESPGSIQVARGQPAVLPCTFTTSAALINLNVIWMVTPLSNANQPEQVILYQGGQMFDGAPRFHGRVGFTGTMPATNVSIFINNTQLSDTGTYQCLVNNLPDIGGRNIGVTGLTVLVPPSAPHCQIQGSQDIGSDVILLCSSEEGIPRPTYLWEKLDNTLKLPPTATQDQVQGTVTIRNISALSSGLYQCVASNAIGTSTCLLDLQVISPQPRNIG
Test: ELISA, IgG

Row | Binder | EC50 [nM]
12 | B12 | 1 to 20
13 | B13 | 20 to 100
14 | B14 | 1 to 20
15 | B15 | 1 to 20
16 | B16 | 1 to 20
17 | B17 | < 1
18 | B18 | 1 to 20
19 | B19 | < 1
20 | B20 | 20 to 100
21 | B21 | 1 to 20
22 | B22 | 1 to 20
23 | B23 | 1 to 20

Target: T1, Streptavidin
Test: ELISA, scFv

Row | Binder | binding result
24 | B24 | no binding (tested: <0.025 or <0.05 RFU)
25 | B25 | no binding (tested: <0.025 or <0.05 RFU)

Reference: patent publication US20240010720A1 (IOMX THERAPEUTICS, published 2024)
